This assay concerns the target T1, recombinant human CXCR3 (human, UniProt P49682 1-368, limits assumed).
T1 construct: also called C-X-C motif chemokine receptor 3
T1 sequence (looked up): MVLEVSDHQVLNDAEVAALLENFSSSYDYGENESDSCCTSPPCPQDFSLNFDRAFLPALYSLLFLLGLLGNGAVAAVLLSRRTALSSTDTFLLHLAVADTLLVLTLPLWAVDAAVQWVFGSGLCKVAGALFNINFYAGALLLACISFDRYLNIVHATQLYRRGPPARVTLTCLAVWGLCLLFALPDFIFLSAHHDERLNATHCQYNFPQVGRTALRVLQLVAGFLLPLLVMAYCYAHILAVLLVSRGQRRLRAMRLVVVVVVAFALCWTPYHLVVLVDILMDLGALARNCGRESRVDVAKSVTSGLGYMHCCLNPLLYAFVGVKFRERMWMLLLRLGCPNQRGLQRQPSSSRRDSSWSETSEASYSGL
The assay can be described thus: binding kinetics; method and antigen not given.

One may read the Kd as the concentration at which binding is half-saturated. Broadly, the koff is a measure of how fast the partners let go of each other. As usually defined, the kon is the rate constant with which the complex forms.

B1: humanized clone 53 HuAntibody 23 (antibody, V domains shown)
VH: EVQLLESGGGLVQPGGSLRLSCAASGFTFTSYAMSWVRQAPGKGLEWVAVISHGGTYTYYADSVKGRFTISRDNAKNTLYLQMNSLRAEDTAVYYCARHPIYSGNYQGYFDYWGQGTLVTVSS
VL: DIQLTQSPSFLSASVGDRVTITCRASSGVNYLYWYQQKPGKAPKLWIYFTSTLAPGVPSRFSGSGSGNEYTLTISSLQPEDFATYYCQQFTSSPYTFGGGTKLEIK
notes: humanized anti-human CXCR3 mAb
As for B1, the dissociation constant Kd came out at 0.322 nM, the koff was 2.45e-05 s⁻¹ and the kon is 75600 M⁻¹ s⁻¹.

B2: humanized clone 53 HuAntibody 34 (antibody, V domains shown)
VH: EVQLLESGGGLVQPGGSLRLSCAASGFTFTSYAMSWVRQAPGKGLEWVAVISHGGTYTYYADSVKGRFTISRDNAKNTLYLQMNSLRAEDTAVYYCARHPIYSGNYQGYFDYWGQGTLVTVSS
VL: DIQLTQSPSFLSASVGDRVTITCRASSGVNYLYWYQQKPGKAPKLWIYFTSTLASGVPSRFSGSGSGNEYTLTISSLQPEDFATYYCQQFTSSPYTFGQGTKLEIK
notes: as for B1
Take B2: the Kd is 1.03 nM, the koff was determined as 9.19e-05 s⁻¹ and the kon turned out to be 88900 M⁻¹ s⁻¹.

B3: humanized clone 53 HuAntibody 35 (antibody, V domains shown)
VH: EVQLLESGGGLVQPGGSLRLSCAASGFTFTSYAMSWVRQAPGKGLEWVATISHGGTYTYYPDSVKGRFTISRDNAKNTLYLQMNSLRAEDTAMYYCARHPIYSGNYQGYFDYWGQGTLVTVSS
VL: DIQLTQSPSFLSASVGDRVTITCRASSGVNYLYWYQQKPGKAPKLWIYFTSTLASGVPSRFSGSGSGNEYTLTISSLQPEDFATYYCQQFTSSPYTFGQGTKLEIK
notes: as for B1
B3: the Kd was determined as 0.0456 nM, the koff is 4.73e-06 s⁻¹ and the kon is 102000 M⁻¹ s⁻¹.

B4: humanized clone 53 HuAntibody 31 (antibody, V domains shown)
VH: EVQLLESGGGLVQPGGSLRLSCAASGFTFTSYAMSWVRQAPGKGLEWVATISHGGTYTYYPDSVKGRFTISRDNAKNTLYLQMNSLRAEDTAMYYCARHPIYSGNYQGYFDYWGQGTLVTVSS
VL: DIQLTQSPSFLSASVGDRVTITCRASSGVNYLYWYQQKPGKAPKLWIYFTSTLASGVPSRFSGSGSGNEYTLTISSLQPEDFATYYCQQFTSSPYTFGGGTKLEIK
notes: as for B1
Take B4: the Kd worked out at 0.449 nM, the koff was 5e-05 s⁻¹ and the kon stood at 111000 M⁻¹ s⁻¹.

B5: humanized clone 53 HuAntibody 33 (antibody, V domains shown)
VH: EVQLLESGGGLVQPGGSLRLSCAASGFTFTSYAMSWVRQAPGKGLEWVATISHGGTYTYYPDSVKGRFTISRDNAKNTLYLQMNSLRAEDTAVYYCARHPIYSGNYQGYFDYWGQGTLVTVSS
VL: DIQLTQSPSFLSASVGDRVTITCRASSGVNYLYWYQQKPGKAPKLWIYFTSTLASGVPSRFSGSGSGNEYTLTISSLQPEDFATYYCQQFTSSPYTFGGGTKLEIK
notes: as for B1
For the molecule B5, the Kd was 0.656 nM.

B6: humanized clone 53 HuAntibody 26 (antibody, V domains shown)
VH: EVQLLESGGGLVQPGGSLRLSCAASGFTFTSYAMSWVRQAPGKGLEWVAVISHGGTYTYYADSVKGRFTISRDNAKNTLYLQMNSLRAEDTAVYYCARHPIYSGNYQGYFDYWGQGTLVTVSS
VL: DIQLTQSPSFLSASVGDRVTITCRASSGVNYLYWYQQKPGKAPKLWIYFTSTLAPGVPSRFSGSGSGNEYTLTISSLQPEDFATYYCQQFTSSPYTFGQGTKLEIK
notes: as for B1
B6: the Kd turned out to be 0.537 nM, the koff stood at 5.46e-05 s⁻¹ and the kon was 101000 M⁻¹ s⁻¹.

B7: humanized clone 53 HuAntibody 30 (antibody, V domains shown)
VH: EVQLLESGGGLVQPGGSLRLSCAASGFTFTSYAMSWVRQAPGKGLEWVAVISHGGTYTYYADSVKGRFTISRDNAKNTLYLQMNSLRAEDTAVYYCARHPIYSGNYQGYFDYWGQGTLVTVSS
VL: DIQLTQSPSFLSASVGDRVTITCRASSGVNYLYWYQQKPGKAPKLWIYFTSTLASGVPSRFSGSGSGNEYTLTISSLQPEDFATYYCQQFTSSPYTFGGGTKLEIK
notes: as for B1
As for B7, the dissociation constant Kd worked out at 1.34 nM, the koff amounted to 0.000126 s⁻¹ and the kon came out at 93700 M⁻¹ s⁻¹.

B8: humanized clone 53 HuAntibody 24 (antibody, V domains shown)
VH: EVQLLESGGGLVQPGGSLRLSCAASGFTFTSYAMSWVRQAPGKGLEWVATISHGGTYTYYPDSVKGRFTISRDNAKNTLYLQMNSLRAEDTAMYYCARHPIYSGNYQGYFDYWGQGTLVTVSS
VL: DIQLTQSPSFLSASVGDRVTITCRASSGVNYLYWYQQKPGKAPKLWIYFTSTLAPGVPSRFSGSGSGNEYTLTISSLQPEDFATYYCQQFTSSPYTFGGGTKLEIK
notes: as for B1
With B8, the Kd is 0.0614 nM, the koff amounted to 6.16e-06 s⁻¹ and the kon stood at 101000 M⁻¹ s⁻¹.

B9: humanized clone 53 HuAntibody 25 (antibody, V domains shown)
VH: EVQLLESGGGLVQPGGSLRLSCAASGFTFTSYAMSWVRQAPGKGLEWVATISHGGTYTYYPDSVKGRFTISRDNAKNTLYLQMNSLRAEDTAVYYCARHPIYSGNYQGYFDYWGQGTLVTVSS
VL: DIQLTQSPSFLSASVGDRVTITCRASSGVNYLYWYQQKPGKAPKLWIYFTSTLAPGVPSRFSGSGSGNEYTLTISSLQPEDFATYYCQQFTSSPYTFGGGTKLEIK
notes: as for B1
For B9, the Kd amounted to 0.623 nM, the koff amounted to 6.21e-05 s⁻¹ and the kon was found to be 99500 M⁻¹ s⁻¹.

B10: humanized clone 53 HuAntibody 29 (antibody, V domains shown)
VH: EVQLLESGGGLVQPGGSLRLSCAASGFTFTSYAMSWVRQAPGKGLEWVATISHGGTYTYYPDSVKGRFTISRDNAKNTLYLQMNSLRAEDTAVYYCARHPIYSGNYQGYFDYWGQGTLVTVSS
VL: DIQLTQSPSFLSASVGDRVTITCRASSGVNYLYWYQQKPGKAPKLWIYFTSTLAPGVPSRFSGSGSGNEYTLTISSLQPEDFATYYCQQFTSSPYTFGQGTKLEIK
notes: as for B1
Regarding B10, the Kd was determined as 0.303 nM, the koff came to 3.5e-05 s⁻¹ and the kon came to 115000 M⁻¹ s⁻¹.

B11: humanized clone 53 HuAntibody 27 (antibody, V domains shown)
VH: EVQLLESGGGLVQPGGSLRLSCAASGFTFTSYAMSWVRQAPGKGLEWVATISHGGTYTYYPDSVKGRFTISRDNAKNTLYLQMNSLRAEDTAMYYCARHPIYSGNYQGYFDYWGQGTLVTVSS
VL: DIQLTQSPSFLSASVGDRVTITCRASSGVNYLYWYQQKPGKAPKLWIYFTSTLAPGVPSRFSGSGSGNEYTLTISSLQPEDFATYYCQQFTSSPYTFGQGTKLEIK
notes: as for B1
Turning to B11, the Kd was 0.0737 nM, the koff stood at 8.34e-06 s⁻¹ and the kon came to 113000 M⁻¹ s⁻¹.

These data come from patent US20180244787A1 (Sanofi, published 2018).
